Test: soluble on expression in E. coli; label from the status in PepcDB or PDB records

Sequence | soluble on expression in E. coli
GPGSMGNGCCGCCDAKPDYKLGRPLVSGKTTPCFNDGRLFKIVKGDIWYFYNDTQDYQMKVTADFGNGSNIVAMSDTELVRKNDSGACTATVSVFPLETKAMVQTKEVNGFNVKYSGIAFTDADRQKLRQKAAAQVSADLAEMRKLRERNPKVNNQNRLLKVARGKGKMYVDTSFPPTSQSLIRSGIDSDPDACLKRPETIAWRRPEDFLPKKWHPKIRLFGNISPKDISQGQLGDCYYLCALAALAEHDAAIKGIFKNHHGCCIRSQERKHGAWRVNLNISGWWRTIIIDSYLPTVQLLPVFARNRNHPNELWVSFAEKAYAKVFGSYQAIVAGYPWQALEDLTGFPAYNFGNMWRTAQTDTETRKKLFDSLHRWNKKYLICIATPSNGALKMAGKQLSANQWEALFEKAGLRIGHAYSVLDVRHFPLHRLCMLKIRNPWGSHVEWSGDWGDDSPLWNRYPFIKLACRPEKKADGIFWMEWRDVSKFFDSGSVCFRRGHWFRSWYDYRVLGSFEDLVCDTALLIIVNKTSQFPAYISLHQKDCRGLATSDPDSKYACVMISISEGDINGSQQKVVANSSENPEEPSTEYLFQESRSVSLYYKFTKGHKYLVIPRRMKSSTGNNVPKKKYVIALRTQTKVSSEDVVVNIVRLDKNNAVFKNVASFDAGTPTSLNTLYQIKDGNNVFRTYRSDNLRKGKKQHNAEFELVM | not soluble
MGSDKIHHHHHHMQTTTALRLYGKRDLRLETFTLPAMQDDEILARVVTDSLCLSSWKEANQGADHKKVPDDVATRPIIIGHEFCGEILAVGKKWQHKFQPGQRYVIQANLQLPDRPDCPGYSFPWIGGEATHVVIPNEVMAQDCLLTWEGDTWFEGSLVEPLSCVIGAFNANYHLQEGSYNHVMGIRPQGHTLILGGTGPMGLLAIDYALHGPINPSLLVVTDTNKPKLSYARRHYPSEPQTLIHYLDGHEASRDTLLALSGGHGFDDIFVFVPNEQLITLASSLLAPDGCLNFFAGPQDKQFSAPINFYDVHYAFTHYVGTSGGNTDDMRAAVALMQAKKVQTAKVVTHILGLNAAGETTLDLPAVGGGKKLVYTGKAFPLTPLGEIADPELAAIVARHHGIWSQDAEAYLLAHAEDITHD | not soluble
MSLAFHEGLAAHLATGVTTTCHAWAIDRADGVVMGFTDHDRGLVFEGIDFRADSGLSALALQRGTGLAVDNSEAIGALTDAAIREADIDAGRFDGAGVRAWLVNWTDVAQRQLMFRGTIGEIRRAGGAFTAELRGLTEALNQPRGRVYQTPCGAVLGDAACGVDLGAPGYAAEAEVLGVEEGQRLVLPGLPDFEAGWFARGRLVVLDGAAEGLSGVVKRDVIAEGARHVDLWQALRAPLSVGDRIRIEAGCDKRMETCRYKFNNLLNYQGFPDIPGEDWMTVMPAQSGATGGGSRREGHHHHHH | soluble
MSLNTIYEPSSICMIRTPLLSVEFFNLFLNTEQIKYSDLQLNAQMKESILTTTFNLYCTLQEINFDGDNKKVRDAKESLLKYLIRMSTRPTPFGLLSGINLGHFVNEPTRLKVGNSIQKYVKVDGEWLYKLVSYIESIDEYYQNLKVIWNSKAHIINDRIYLNEQSAIYLNNNKDTSFSIKNSELLVFIKTTVTNNNITFSNLAEKINQEFEINDITKVKVYIHNLVSKEIIYSTIRPPLSYSDNLNYILNKLSLHNDDFVKKIREIQKLILAYEKTEIGFGEELYKDIIHHMKALFKCKNYLQIDTKIDMINNYLHQDIATNISEAAYLLWLLSRNNIGFTDLKVLHNRFIEKYGFEQLVNIKDLISDITGFGTTIFQEEETDGNNIVMLKQKFLHALRNNDEIVINEKDVESLINDNEINHYHAPMSADVYAELYLGRFYNQYNELIVISPLTASFNAGATFGRFHHLIDTETLAKLEHEKGHYYQKMICDDNVEMISINNIPKYPRNHNVLTNHDSYEYSLNLGSSNSYSKYELTLDDIYVGATFNKLYLYSSQLNKRVIFESNNMYNFLKECNLYRLLREISMESVKCIEPMNDVSIDSFSYSPRIRYKNVILKPAYWKINEMVLPLPKNEEWDQQFLKYQEQFNIPNIVNLVYGDNKLLLNLSLANHRYLLMKEYKKHKRVRLVESFLPQSKNDHVYEIVTPIYKKSSYRGEGHHHHHH | not soluble
MRVLVSGGGTGGHIYPALALIREIKKLNPEARFLYIGTENGLESTIVPKAGIPFQSIVISGFKRKISLDNVKTVMRFLKGVQDSKRYIRRFNPDIVIGTGGYVCGPVVYAAAKLGIPTIVHEQNSVPGVTNKFLSRYVDKVAVCFEAAAEHFPQSKVVMTGNPRASEVMDQNGMKGKRSVGLSLPKKSVLIFGGSRGARPINDAFVEAIEQFGNKSYEILYVTGEVHYDKVMEAVKQKGNPNNVIIKPFIHNMPEVLTGVDLVVSRAGATTLAELTALGKPSVLIPSPYVTNNHQEKNARSVVDKGAAKMLLEKDLTAETLIRDIDEILLDAQTLQNMKLAAGQLGIPDAANKLYEVMNKLVKK | not soluble
MGSDKIHHHHHHMAMTTEFANEITDVAKAIYEYAELGSSEYKSSSYLVEAFKRHGFQVDFPYLGMKTAFKARYFNGKPMVGLLAEYDALPNGHSCGHDLIAAWAFGTAIRLKDEFGISVTVFGTPSEEGIGEYAGSKAKFAQSGAFSDVDYVIGMHPDDRWAVGSTSLADLTIEAQFIGKSSHLLSPDYGINALDPLVESYVALSNFRRSVPNSKYPVIGMIVKEGGRASNVIPDKASMEIDIRAKKKADLAGFVDQIERILKMEGEMHYCKLNINEVTPIYDEYKSNRVIDSLLEEECQKHAVNPFNVDRSGEEPMGSTDEANVSQVIPTGHLDVKIVDPGIPAHTDEFRIAADPSRSGKTLLKAIDITVETIKTIWQDKKFMNKIKEEFKK | not soluble
MRIHRRIKIKQKSVRIFIFDTKHRINDTKRQEDDEPHGLSALHFASRRPTCCACWMRRKKESTTTKVCVQDDCTTCSCTSASRCSRCSPCCSGCCSCTS | not soluble
MTDKLPLALFLMGPTASGKTELAIRLRQKFPVEIISVDSALIYKGMDIGTAKPDERELSLAPHRLIDILDPSESYSAADFRRDALQAMDDIVAEGKIPLLVGGTMLYYKALLEGLSPLPAANPEIRQQIEQEALTKGWSVLHDELKEIDPVSAARIHPNDPQRLSRALEVYRISGKTLTELTQTKGESLPYRVKQFAIAPKDRAELHRRIELRFDKMMEAGFEEEMKALYARKDLHPDLPSIRCVGYRQMWEYLDGECTRDEAVFRGVCATRQLAKRQITWLRSWDDLTWLDSDNIEQALETMSEAIASDLEHHHHHH | soluble
MGSDKIHHHHHHMSINFDLNDLQAFRAVVENGSFRKAAESVRITQPALSRRIEKLESALNVKLFERTTRKVSLTTVGRAFLPQVERILDDLDIALMTIGEVGSTRMGSVTIACVPSAAYYFMPQVISAFREDYPKIRVKVLDASANEVNSAVALGEADFGVSFSGNLAPEVDFELLLQERYVMACRRDHSLAIRESVSWEEMYSHDYIALDITSGNRLVLDQALARSRPHKESICETRHVTTMIGLVEAGLGVAAVPSIAMPMTAHPFLVSVPLVEPEVIRNVGLIKRRGRTLTPAALELEQLVRKMPFRSAGN | not soluble
MTEKSLKLFIVLSRAYRSINDHMNKHIHKHGLNPTEFAVLELLYHKGDQPLQQIGDKILLASGSITYVVDKLEQKELLIRKASPTDRRVTFAQITEKGIGLLNDIFPDHAAEIDEMISVLSEEEVEMCTEMLKRVGLNAKQFHNK | not soluble
MPVRYSGFDYDGCVGVTNLINIVAQNPKLAQRIRETSNYYTKEVALIASNRQSDRDDKRNARSNGNGSCFIQIQKLCTDLGMEFDPFLLADAYNLVPAGTSLHEATNPANGAKIQNGWLHDKSKASLVYAHMQRASSLEAREQIDYFFYDDREDILEGLYQFFSANPELIPSNVTMHLVKYACSRENVHTMDNYKIPVQGKGFTNPDYVKTIKAFGDKAIENARDVYDIDGKEINAAGVRQAKYNCNFEFEANKLQPMKFVNNFNSPAELIKAHEQAIEKIKLGAFELYKAKINVITTLSNEQKVFLIRAKAQQWNLLCDEGQWNNPIFTLQAIMAEKSDRFFLPQYAFTAKMLIKNYQEARENSKDGSRFWEQINAFIKSMNALKDPMRNAQSIFEVFKKNSYSVKAVDGFVKKVVEVMNALMDKYPQRSTTEMVACMRILESNLQKMVNFFSLVDRLITIYRGCTTAGLNFNKILTVVREALEEMKMITDSGDNYSTTLIDLDKVITAANNRLESLTYPKEYSTKNFHSQESYKVVGAYLCMQSQLIQKLDTKASTALAI | not soluble
MSLTTELVDWTHEQKCRKAVAALEKNGFTAVYCPSGREAFDYILTEAVDARSIGFGGSLSVVDLQVIDRLREMDKELLIHGLPGLSLEERVAIMRRQLTCDLFLTGTNALTLSGWLVNIDATGNRVASMFFGPRTVIVVAGRNKIVDGGVTEAIARVKEWASPPNARRLSYKTPCATTGFCSDCNSPDRICRITTVIDRNPRLTDLRVLVVNEDMGLLEHHHHHH | soluble

Reference: the DeepSol protein solubility set
